Biological target: the molecule itself
Assay: two-step photobleaching of single molecules

B1: GFP-tagged MCAK containing aa 187-730 (GMΔNT) (domain or fragment, UniProt Q91636 187-730, looked up)
chain: GRNNQGRRKSNIVKEMEKMKNKREEQRAQNYERRMKRAQDYDTSVPNWEFGKMIKEFRATMDCHRISMADPAEEHRICVCVRKRPLNKQELSKKEIDIISVPSKNIVLVHEPKLKVDLTKYLENQAFRFDFSFDETATNEVVYRFTARPLVQSIFEGGKATCFAYGQTGSGKTHTMGGDFSGKSQNVSKGVYAFASRDVFLLLDQPRYKHLDLDVFVTFFEIYNGKVFDLLNKKTKLRVLEDAKQEVQVVGLLEKQVISADDVFKMIEIGSACRTSGQTFANTSSSRSHACLQIILRRGSKLHGKFSLVDLAGNERGVDTASADRITRMEGAEINRSLLALKECIRALGQNKSHTPFRESKLTQILRDSFIGENSRTCMIAMLSPGFNSCEYTLNTLRYADRVKELSPQNAETNDDNLQMEDSGGSHASIEGLQLQDDFLLKDEELSTHNSFQDALNRVGELEDKAVDELRELVQKEPEWTNLLQMTEQPDYDLENFVMQAEYLIQERSKVLIALGDSINSLRLALQVEEQASKQISKKKRSNK
stoichiometry N: 2

— paper PMC3897551 (Current biology : CB, 2013)
